Key:
[1] = target: T1, CD300f-Ig fusion protein (recombinant CD300f-Fc protein, Sino Biologicals) (human, UniProt Q8TDQ1 20-156); test: Bio-Layer Interferometry (BLItz), CD300f-Fc on AHC biosensor, DCR-2 at 8.333, 16.67, 33.33, 66.67 and 0 nM, global 1:1 fit; same value in rows Index 1 to 4
T1 construct: domain: CD300f Ig-like domain; Bought reagent; also called CD300f-Fc recombinant protein; CD300f Ig-like domain; not shown: Ig Fc part (captured by goat anti-human Ig Fc / human IgG Fc capture sensor)
T1 sequence (looked up): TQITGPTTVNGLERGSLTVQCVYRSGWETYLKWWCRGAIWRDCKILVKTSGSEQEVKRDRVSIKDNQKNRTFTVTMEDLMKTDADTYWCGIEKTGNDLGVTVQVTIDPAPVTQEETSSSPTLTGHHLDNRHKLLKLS
Protocol: (§1) DCR-2 was assessed for affinity for CD300f using a BLItz System (Fortebio, Pall Life Sciences). CD300f-Fc recombinant protein was immobilized to a human IgG Fc capture sensor. A five point dilution series of each mAb was tested for association and dissociation. Kinetic rate constants were estimated using BLItz Pro software with a global fitting 1:1 binding model.
(§2) The kinetics of binding of DCR-2 to CD300f-Fc recombinant protein was determined using Bio-Layer Interferometry analysis on a BLItz System (Fortebio, Pall Life Sciences).

[2] = target: CD300f^L4 expressed in CHO cells (isoform of CD300f which includes the amino acid sequence …) (human) (UniProt Q8TDQ1); test: flow cytometry MFI ratio, CD300f^L4 against CD300f^S4 CHO transfectants
[3] = target: T2, CD300a on CHO transfectant cell surface (UniProt Q9UGN4 18-299, limits assumed); test: flow cytometry on CD300a CHO transfectants
T2 construct: whole, on cells; Said to be 'similarly expressed in CHO cells'; also called CD300a transfected cells
T2 sequence (looked up): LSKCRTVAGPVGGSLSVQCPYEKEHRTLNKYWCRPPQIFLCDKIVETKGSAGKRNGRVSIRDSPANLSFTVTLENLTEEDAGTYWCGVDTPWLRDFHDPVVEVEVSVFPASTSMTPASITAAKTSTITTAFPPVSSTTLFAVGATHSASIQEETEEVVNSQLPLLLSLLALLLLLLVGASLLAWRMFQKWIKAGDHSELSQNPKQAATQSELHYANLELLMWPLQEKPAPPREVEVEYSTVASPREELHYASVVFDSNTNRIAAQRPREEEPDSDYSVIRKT

[4] = target: T1, CD300f-Ig fusion protein (recombinant …); test: Bio-Layer Interferometry (BLItz), CD300f-Fc on AHC biosensor, DCR-2 at 8.333, 16.67, 33.33, 66.67 and 0 nM, global 1:1 fit; same value in rows Index 1 to 4; Kd Error 3.58e-5
Protocol: as §1, §2

[5] = target: T1, CD300f-Ig fusion protein (recombinant …); test: Bio-Layer Interferometry (BLItz), CD300f-Fc on AHC biosensor, DCR-2 at 8.333, 16.67, 33.33, 66.67 and 0 nM, global 1:1 fit; same value in rows Index 1 to 4; Ka Error 7.087e3
Protocol: as §1, §2

B1: Monoclonal antibody DCR-2 (antibody, V domains shown)
VH: MESGGGLVQPGGPLKLSCAASGFGFSGSWMSWVRQAPGKGLEWIGQINPDSSTINYTPSLKDKFIISRDNAKNTLYLQINKVRSEDTALYYCARRGFFEGYSAWFAYWGQGTLVTV
VL: ILMTQTPKFLLVSAGDRVTITCKASQSVSNDVAWYQQKPGQSPSLLIYYASNRNTGVPDRFTGSGYETDFTFTISTVQAEDLAVYFCQQDYTSPWTFGGGTKLEIKR
notes: also called mAb DCR-2
[1]
  Kd: 0.366 nM
[2]
  fold difference in binding compared to CD300f^S4: < 2 fold
[3]
  binding result: no binding
[4]
  koff: 0.000188 s⁻¹
[5]
  kon: 514000 M⁻¹ s⁻¹

From US20240294637A1 (DENDROCYTE BIOTECH, published 2024)
